Reference: the supplement of paper PMC9112550, “Optimization of the antimicrobial peptide Bac7 by deep mutational scanning” (BMC Biology, 2022)

System: Escherichia coli TOP10
Test: shrunken log2 fold change of peptide-encoding DNA abundance (4.5 h post-induction vs induction); higher = less antimicrobial activity (less host growth inhibition)
Settings: time post-induction: 4.5 h; library: site-saturation at positions 5, 18, 19, 20
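Also: peptides expressed intracellularly from a pBAD plasmid library in pooled LB shake-flask culture, induced with 0.3% L-arabinose, DNA abundance read by NGS, three biological replicates, DESeq2 with apeglm shrinkage.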

Sequence | shrunken log2 fold change
RRIRARPPRLPRPRPRPNVFPRP | 0.258
RRIRARPPRLPRPRPRPNVQPRP | 0.109
RRIRARPPRLPRPRPRPNYGPRP | -0.24
RRIRARPPRLPRPRPRPPANPRP | 3.4
RRIRARPPRLPRPRPRPPDKPRP | 0.572
RRIRARPPRLPRPRPRPPDQPRP | 1.16
RRIRARPPRLPRPRPRPPEEPRP | 1.73
RRIRARPPRLPRPRPRPPEMPRP | 0.515
RRIRARPPRLPRPRPRPPERPRP | 0.703
RRIRARPPRLPRPRPRPPFEPRP | 0.504
RRIRARPPRLPRPRPRPPGRPRP | 0.742
RRIRARPPRLPRPRPRPPHAPRP | 0.964
RRIRARPPRLPRPRPRPPHKPRP | 0.996
RRIRARPPRLPRPRPRPPIEPRP | 0.188
RRIRARPPRLPRPRPRPPIIPRP | -0.308
RRIRARPPRLPRPRPRPPIVPRP | -0.0791
RRIRARPPRLPRPRPRPPKHPRP | 0.472
RRIRARPPRLPRPRPRPPLRPRP | 1.63
RRIRARPPRLPRPRPRPPMDPRP | 0.515
RRIRARPPRLPRPRPRPPMPPRP | 0.405
RRIRARPPRLPRPRPRPPMVPRP | 0.0322
RRIRARPPRLPRPRPRPPQPPRP | 1.03
RRIRARPPRLPRPRPRPPSSPRP | 0.342
RRIRARPPRLPRPRPRPPSYPRP | 0.0336
RRIRARPPRLPRPRPRPPTFPRP | 0.158

Sequence | shrunken log2 fold change
RRIRARPPRLPRPRPRPPWHPRP | 0.342
RRIRARPPRLPRPRPRPPWLPRP | 0.495
RRIRARPPRLPRPRPRPPWPPRP | 0.738
RRIRARPPRLPRPRPRPPYQPRP | 0.171
RRIRARPPRLPRPRPRPQAGPRP | 0.195
RRIRARPPRLPRPRPRPQAKPRP | 0.0548
RRIRARPPRLPRPRPRPQCWPRP | 0.173
RRIRARPPRLPRPRPRPQDGPRP | 0.214
RRIRARPPRLPRPRPRPQFSPRP | 0.0761
RRIRARPPRLPRPRPRPQFWPRP | 0.148
RRIRARPPRLPRPRPRPQGAPRP | 0.191
RRIRARPPRLPRPRPRPQGSPRP | 0.4
RRIRARPPRLPRPRPRPQHEPRP | 0.0966
RRIRARPPRLPRPRPRPQHHPRP | -0.298
RRIRARPPRLPRPRPRPQHSPRP | 0.283
RRIRARPPRLPRPRPRPQKQPRP | -0.00111
RRIRARPPRLPRPRPRPQLHPRP | 0.054
RRIRARPPRLPRPRPRPQLMPRP | 0.125
RRIRARPPRLPRPRPRPQNNPRP | -0.29
RRIRARPPRLPRPRPRPQPLPRP | 0.209
RRIRARPPRLPRPRPRPQQIPRP | 0.218
RRIRARPPRLPRPRPRPQQNPRP | 0.166
RRIRARPPRLPRPRPRPQQRPRP | 0.199
RRIRARPPRLPRPRPRPQWMPRP | 0.0371
RRIRARPPRLPRPRPRPQWRPRP | 0.218

Sequence | shrunken log2 fold change
RRIRARPPRLPRPRPRPRAFPRP | 0.398
RRIRARPPRLPRPRPRPRAIPRP | 0.358
RRIRARPPRLPRPRPRPRCHPRP | 0.308
RRIRARPPRLPRPRPRPRCMPRP | 1.62
RRIRARPPRLPRPRPRPRCQPRP | 0.316
RRIRARPPRLPRPRPRPRDPPRP | 0.948
RRIRARPPRLPRPRPRPREHPRP | 0.376
RRIRARPPRLPRPRPRPRFPPRP | 0.421
RRIRARPPRLPRPRPRPRFQPRP | 0.466
RRIRARPPRLPRPRPRPRGYPRP | 0.166
RRIRARPPRLPRPRPRPRHHPRP | 0.0585
RRIRARPPRLPRPRPRPRHVPRP | 0.162
RRIRARPPRLPRPRPRPRIFPRP | 0.213
RRIRARPPRLPRPRPRPRKAPRP | 0.0975
RRIRARPPRLPRPRPRPRKPPRP | 0.114
RRIRARPPRLPRPRPRPRLIPRP | 0.235
RRIRARPPRLPRPRPRPRMDPRP | 0.356
RRIRARPPRLPRPRPRPRMTPRP | 1.04
RRIRARPPRLPRPRPRPRMVPRP | 0.686
RRIRARPPRLPRPRPRPRNMPRP | 0.263
RRIRARPPRLPRPRPRPRNNPRP | -0.101
RRIRARPPRLPRPRPRPRNYPRP | 0.0668
RRIRARPPRLPRPRPRPRPEPRP | 0.686
RRIRARPPRLPRPRPRPRPTPRP | 0.867
RRIRARPPRLPRPRPRPRQGPRP | 0.605

Sequence | shrunken log2 fold change
RRIRARPPRLPRPRPRPRRKPRP | 0.644
RRIRARPPRLPRPRPRPRRWPRP | 0.739
RRIRARPPRLPRPRPRPRSGPRP | 0.537
RRIRARPPRLPRPRPRPRSIPRP | -0.0101
RRIRARPPRLPRPRPRPRSMPRP | 0.42
RRIRARPPRLPRPRPRPRSNPRP | 0.0752
RRIRARPPRLPRPRPRPRSQPRP | 0.00929
RRIRARPPRLPRPRPRPRTDPRP | 0.465
RRIRARPPRLPRPRPRPRVIPRP | -0.0156
RRIRARPPRLPRPRPRPRVYPRP | 0.441
RRIRARPPRLPRPRPRPRWKPRP | 0.462
RRIRARPPRLPRPRPRPSAMPRP | 0.38
RRIRARPPRLPRPRPRPSDCPRP | -0.164
RRIRARPPRLPRPRPRPSDKPRP | -0.197
RRIRARPPRLPRPRPRPSDNPRP | -0.183
RRIRARPPRLPRPRPRPSDQPRP | -0.0615
RRIRARPPRLPRPRPRPSFPPRP | -0.0947
RRIRARPPRLPRPRPRPSFVPRP | 0.0934
RRIRARPPRLPRPRPRPSIMPRP | -0.178
RRIRARPPRLPRPRPRPSLYPRP | 0.0269
RRIRARPPRLPRPRPRPSNAPRP | 0.133
RRIRARPPRLPRPRPRPSNSPRP | -0.156
RRIRARPPRLPRPRPRPSQAPRP | 0.0359
RRIRARPPRLPRPRPRPSQRPRP | 0.373
RRIRARPPRLPRPRPRPSSCPRP | -0.0288

Sequence | shrunken log2 fold change
RRIRARPPRLPRPRPRPSSLPRP | 0.00294
RRIRARPPRLPRPRPRPSSMPRP | -0.144
RRIRARPPRLPRPRPRPSVQPRP | 0.629
RRIRARPPRLPRPRPRPTADPRP | 0.83
RRIRARPPRLPRPRPRPTARPRP | 0.874
RRIRARPPRLPRPRPRPTCIPRP | 0.331
RRIRARPPRLPRPRPRPTCWPRP | 0.651
RRIRARPPRLPRPRPRPTDDPRP | 0.332
RRIRARPPRLPRPRPRPTFEPRP | 0.42
RRIRARPPRLPRPRPRPTFRPRP | 0.323
RRIRARPPRLPRPRPRPTFTPRP | 0.51
RRIRARPPRLPRPRPRPTFYPRP | -0.00745
RRIRARPPRLPRPRPRPTGAPRP | 0.906
RRIRARPPRLPRPRPRPTGPPRP | 0.284
RRIRARPPRLPRPRPRPTGYPRP | 0.191
RRIRARPPRLPRPRPRPTIAPRP | 0.687
RRIRARPPRLPRPRPRPTILPRP | 0.344
RRIRARPPRLPRPRPRPTKAPRP | 0.437
RRIRARPPRLPRPRPRPTKDPRP | 0.144
RRIRARPPRLPRPRPRPTKMPRP | 0.319
RRIRARPPRLPRPRPRPTKVPRP | 0.339
RRIRARPPRLPRPRPRPTLCPRP | 0.392
RRIRARPPRLPRPRPRPTLNPRP | 0.496
RRIRARPPRLPRPRPRPTNFPRP | -0.0105
RRIRARPPRLPRPRPRPTPNPRP | 0.602

Sequence | shrunken log2 fold change
RRIRARPPRLPRPRPRPTQKPRP | -0.0406
RRIRARPPRLPRPRPRPTQMPRP | 0.563
RRIRARPPRLPRPRPRPTRAPRP | 1
RRIRARPPRLPRPRPRPTRFPRP | 0.737
RRIRARPPRLPRPRPRPTTFPRP | 0.177
RRIRARPPRLPRPRPRPTTSPRP | 0.292
RRIRARPPRLPRPRPRPTTVPRP | 0.45
RRIRARPPRLPRPRPRPTVGPRP | 0.794
RRIRARPPRLPRPRPRPTVYPRP | -0.00696
RRIRARPPRLPRPRPRPTWKPRP | -0.0384
RRIRARPPRLPRPRPRPTWMPRP | 0.221
RRIRARPPRLPRPRPRPTYYPRP | -0.119
RRIRARPPRLPRPRPRPVCEPRP | 0.836
RRIRARPPRLPRPRPRPVDQPRP | 0.607
RRIRARPPRLPRPRPRPVFAPRP | 0.561
RRIRARPPRLPRPRPRPVHDPRP | 0.146
RRIRARPPRLPRPRPRPVHMPRP | -0.00775
RRIRARPPRLPRPRPRPVKRPRP | 0.138
RRIRARPPRLPRPRPRPVKYPRP | -0.166
RRIRARPPRLPRPRPRPVLSPRP | 0.26
RRIRARPPRLPRPRPRPVMAPRP | 0.567
RRIRARPPRLPRPRPRPVMEPRP | 1.04
RRIRARPPRLPRPRPRPVMIPRP | 0.0471
RRIRARPPRLPRPRPRPVQSPRP | 0.14
RRIRARPPRLPRPRPRPVRPPRP | 0.602
